# How the values were obtained:
# [1] = target: Vibrio cholerae ParD2 antitoxin (Vibrio cholerae biovar El Tor strain N16961); assay: native MS
# [2] = target: Vibrio cholerae ParE2 toxin with C-terminal histidine tag (Vibrio cholerae biovar El Tor strain N16961); assay: native MS
# [3] = target: Vibrio cholerae ParD2 antitoxin (Vibrio cholerae biovar El Tor strain N16961); assay: crystal structure
# [4] = target: Vibrio cholerae ParE2 toxin with C-terminal histidine tag (Vibrio cholerae biovar El Tor strain N16961); assay: crystal structure
# [5] = target: Vibrio cholerae ParE2 toxin with C-terminal histidine tag (Vibrio cholerae biovar El Tor strain N16961); assay: SEC-MALS
# [6] = target: Vibrio cholerae ParE2 toxin with C-terminal histidine tag (Vibrio cholerae biovar El Tor strain N16961); assay: SAXS
# [7] = target: Vibrio cholerae ParD2 antitoxin (Vibrio cholerae biovar El Tor strain N16961); assay: crystal structure; remark: listed apart in the source
# [8] = target: Vibrio cholerae ParD2:ParE2 6:2 hetero-octameric complex (Vibrio cholerae biovar El Tor strain N16961); assay: native MS
Substance,stoichiometry N [1],stoichiometry N (ParD2 per ParE2 (printed as 6:2)) [2],stoichiometry N [3],stoichiometry N (ParD2 per ParE2 (printed as 6:2)) [4],stoichiometry N (ParD2 per ParE2 (printed as 6:2)) [5],stoichiometry N (ParD2 per ParE2 (printed as 6:2)) [6],stoichiometry N [7],stoichiometry N [8]
Vibrio cholerae ParD2 antitoxin (natural protein),2,3,2,3,3,3,6,
Vibrio cholerae ParD2:ParE2 6:2 hetero-octameric complex,,,,,,,,2

# Source: publication doi:10.1101/2021.03.22.436508
